Measurements as given in patent US10973762B2, “Active-targeting-type polymer derivative, composition containing said polymer derivative, and uses of said polymer derivative and said composition” (Nippon Kayaku Kabushiki Kaisha, priority 2016, dated 2021).

Columns and labels:
integrin αVβ3 = biological target: T1, integrin αVβ3 (Mus musculus, UniProt O54890+P43406); assay: Integrin binding assay (inhibition of biotinylated vitronectin binding); settings: dilution series, absorbance at 450 nm
T1 construct: purchased R&D Systems, Inc
T1 sequence (P43406 31-988 limits assumed): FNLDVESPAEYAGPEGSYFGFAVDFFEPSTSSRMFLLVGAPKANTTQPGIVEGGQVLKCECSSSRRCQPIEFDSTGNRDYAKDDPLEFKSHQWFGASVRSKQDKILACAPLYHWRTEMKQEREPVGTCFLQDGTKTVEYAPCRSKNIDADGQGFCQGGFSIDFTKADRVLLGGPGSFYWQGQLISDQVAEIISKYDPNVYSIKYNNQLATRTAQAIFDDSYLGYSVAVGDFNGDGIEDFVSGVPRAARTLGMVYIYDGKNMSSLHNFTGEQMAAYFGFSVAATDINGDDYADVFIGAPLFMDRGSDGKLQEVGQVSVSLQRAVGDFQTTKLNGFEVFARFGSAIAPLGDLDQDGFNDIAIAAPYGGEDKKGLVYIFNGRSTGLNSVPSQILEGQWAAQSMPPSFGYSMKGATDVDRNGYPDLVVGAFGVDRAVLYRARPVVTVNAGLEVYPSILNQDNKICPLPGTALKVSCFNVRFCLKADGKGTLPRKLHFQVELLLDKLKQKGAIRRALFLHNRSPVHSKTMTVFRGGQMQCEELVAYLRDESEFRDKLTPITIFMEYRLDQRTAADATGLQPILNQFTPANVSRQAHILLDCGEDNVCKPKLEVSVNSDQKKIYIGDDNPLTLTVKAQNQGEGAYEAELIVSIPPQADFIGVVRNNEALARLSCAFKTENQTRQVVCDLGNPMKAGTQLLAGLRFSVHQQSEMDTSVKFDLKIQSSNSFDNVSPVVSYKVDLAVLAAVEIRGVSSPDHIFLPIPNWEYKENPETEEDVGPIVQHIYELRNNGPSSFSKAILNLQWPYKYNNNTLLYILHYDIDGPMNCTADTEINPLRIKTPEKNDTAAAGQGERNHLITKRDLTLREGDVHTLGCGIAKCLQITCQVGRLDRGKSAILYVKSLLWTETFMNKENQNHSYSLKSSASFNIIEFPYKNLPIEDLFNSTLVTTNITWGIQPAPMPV
T1 sequence (O54890 26-717 limits assumed): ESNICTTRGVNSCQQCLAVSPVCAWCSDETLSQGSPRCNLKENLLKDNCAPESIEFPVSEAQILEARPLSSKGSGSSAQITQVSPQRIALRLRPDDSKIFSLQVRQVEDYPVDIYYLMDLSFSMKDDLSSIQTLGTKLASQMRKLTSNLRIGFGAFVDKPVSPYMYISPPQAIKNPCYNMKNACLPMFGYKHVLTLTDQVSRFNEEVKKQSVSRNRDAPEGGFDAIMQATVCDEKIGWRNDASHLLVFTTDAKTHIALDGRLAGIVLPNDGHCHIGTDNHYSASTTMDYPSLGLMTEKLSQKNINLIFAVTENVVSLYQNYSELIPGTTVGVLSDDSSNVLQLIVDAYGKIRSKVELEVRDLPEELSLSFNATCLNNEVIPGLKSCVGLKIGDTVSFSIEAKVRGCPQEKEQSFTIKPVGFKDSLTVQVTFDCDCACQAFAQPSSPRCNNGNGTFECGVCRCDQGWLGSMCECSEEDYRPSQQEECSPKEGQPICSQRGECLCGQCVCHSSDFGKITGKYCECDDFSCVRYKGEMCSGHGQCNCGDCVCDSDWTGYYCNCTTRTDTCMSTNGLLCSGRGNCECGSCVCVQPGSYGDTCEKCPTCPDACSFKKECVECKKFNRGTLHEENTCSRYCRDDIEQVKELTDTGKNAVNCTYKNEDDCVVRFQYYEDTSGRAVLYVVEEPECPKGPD
Experimental: 100 μL each of 1 μg/mL Recombinant Mouse Integrin alpha V beta 3 Protein (R&D Systems, Inc.) produced with PBS(−) was added to a 96-well Costar high capacity binding plate, and the plate was left to stand overnight at 4° C. to thereby bind integrin αVβ3 to the bottom face of the wells. Subsequently, integrin αVβ3 in the wells was removed by suctioning, and 200 μL of a Blocking/Binding buffer (50 mM Tris HCl at pH 7.4, 100 mM NaCl, 2 mM CaCl2, 1 mM MgCl2, 1 mM MnCl2, 1% BSA) was added to each well. Blocking was performed at an interval of one hour at room temperature.
100 μL of biotinylated vitronectin (1 μg/mL) obtained by biotinylated human recombinant vitronectin (Wako Pure Chemical Industries, Ltd.) was added in advance into each well using Biotin Labeling Kit-NH2 (Dojindo Molecular Technologies, Inc.), and the plate was left to stand at room temperature for 3 hours. Subsequently, the wells were washed three times using 200 μL of Blocking/Binding buffer, and 100 μL of streptavidin-HRP (GE Healthcare) diluted 10,000 times with the Blocking/Binding buffer was added to each well. The mixture was left to stand for one hour at room temperature. The wells were washed two times using 200 μL of the Blocking/Binding buffer. […]
Within 30 minutes after the addition, the absorbance at 450 nm was measured, and the binding ratio of biotinylated vitronectin to integrin αVβ3 was calculated.

[1] = Average particle size, single nanoparticle size analyzer IG-1000; format: physicochemical
Experimental: The measurement of the average particle size of the compositions including block copolymers of Examples 3 to 10 and Comparative Examples 1 to 6 was carried out using a single nanoparticle size analyzer, IG-1000, manufactured by Shimadzu Corp. (measurement temperature: 25° C., light intensity at t=0: 100 to 200).
Regarding a sample for measuring the average particle size, a solution produced to have a concentration of 2 mg/mL or 5 mg/mL in terms of the composition weight and filtered through a 0.45-μm membrane filter, was used.

[2] = Test for drug releasability into phosphate buffer solution; format: physicochemical; settings: phosphate buffer solution pH 7.4, 37° C., 6 hours, 1.0 mg/mL, absence of enzyme
Experimental: Example 7, Example 8, and Comparative Example 3 were respectively dissolved in a phosphate buffer solution (pH 7.4) at a concentration of 1.0 mg/mL in terms of the composition weight, and the solutions were left to stand at a constant temperature of 37° C. The amount of 7-ethyl-10-hydroxycamptothecin (EHC) released was measured over time by HPLC, and the proportion of the amount of EHC released with respect to the total amount of EHC in the compound used was determined.

human glioma U87MG = assay: Test Example 4: tissue distribution in tumor (fluorescence of sections); format: in vivo, nude mice; settings: one hour after i.v. administration, 5 mg/kg in terms of fluorescent substance
Experimental: (§1) A suspension of cultured cancer cell human glioma U87MG was subcutaneously transplanted on the dorsal sides of nude mice using an injection needle-attached syringe. Example 7, Comparative Example 2, and Comparative Example 3 were dissolved in a 5% glucose injectable solution, and each of the solutions was intravenously administered a single time in an amount of 5 mg/kg in terms of 2-(2-aminoethoxy)-9-(diethylamino)-5H-benzo[a]phenoxazin-5-one.
(§2) After one hour and after 24 hours from the administration, the mice were exsanguinated under isoflurane anesthesia, and frozen embedded sections of extracted tumor and kidney were produced. Fluorescence derived from 2-(2-aminoethoxy)-9-(diethylamino)-5H-benzo[a]phenoxazin-5-one in the administered composition was observed.
(§3) Furthermore, based on those images, the luminance was calculated using Image-Pro Premier (Media Cybernetics, Inc.), and the values of luminance of tumor tissue sections are shown in FIG. 9, while the values of luminance of kidney tissue sections are shown in FIG. 11.

[3] = Test Example 4: tissue distribution in kidney (fluorescence of sections); format: in vivo, nude mice; settings: i.v. 5 mg/kg in terms of fluorescent substance
Experimental: as §1, §2, §3

4-phenyl-1-butanol-bonded and 2-(2-aminoethoxy)-9-(diethylamino)-5H-benzo[a]phenoxazin-5-one-bonded product of polyethylene glycol (10 kilodaltons)-polyglutamic acid (21.0 polymerizations) block copolymer [Comparative Example 1]
inhibition of binding of vitronectin and integrin αVβ3 (integrin αVβ3): not recognized

7-ethyl-10-hydroxycamptothecin (EHC)-bonded and 2-(2-aminoethoxy)-9-(diethylamino)-5H-benzo[a]phenoxazin-5-one-bonded product of polyethylene glycol (2 kilodaltons)-polyglutamic acid (7.59 polymerizations) block copolymer [Comparative Example 3]
average particle size ([1]; 2 mg/mL): 13 nm | EHC release (proportion of EHC released with respect to total EHC) [2]: 61% | distribution of fluorescence in tumor (human glioma U87MG): penetrated into the entire tumor compared to Comparative Example 2 | distribution of fluorescence in kidney [3]: fluorescence was observed in the blood vessels and the renal tubules

7-ethyl-10-hydroxycamptothecin (EHC)-bonded and 2-(2-aminoethoxy)-9-(diethylamino)-5H-benzo[a]phenoxazin-5-one-bonded product of polyethylene glycol (12 kilodaltons)-polyglutamic acid (22.0 polymerizations) block copolymer [Comparative Example 2]
average particle size ([1]; 5 mg/mL): 23 nm | distribution of fluorescence in kidney [3]: fluorescence was not recognized in areas other than in the blood vessels
